# Measured values as given in US20240391991A1, “MODULATION OF WNT SIGNALLING IN PULMONARY DISORDERS” (Surrozen Operating, Inc., priority 2021, published 2024).
# Entries after “also recorded” stand apart in the source; their conditions may differ.
# B1: SWAP6: FZD1,2,7-specific Wnt agonist; anti-FZD antibody with LRP6 VHH on light chain N-terminus; SEQ ID NO: 12 and 11 (protein)
# chain 1: QVQLQQWGAGLLKPSETLSLTCAVSGASFSGHYWTWIRQPPGKGLEWIGEIDHTGSTNYEPSLRSRVTISVDTSKNQFSLNLKSVTAADTAVYYCARGGQGGYDWGHYHGLDVWGQGTTVTVSSASTKGPSVFPLAPSSKSTSGGTAALGCLVKDYFPEPVTVSWNSGALTSGVHTFPAVLQSSGLYSLSSVVTVPSSSLGTQTYICNVNHKPSNTKVDKKVEPKSCDKTHTCPPCPAPEAAGGPSVFLFPPKPKDTLMISRTPEVTCVVVDVSHEDPEVKFNWYVDGVEVHNAKTKPREEQYNSTYRVVSVLTVLHQDWLNGKEYKCKVSNKALGAPIEKTISKAKGQPREPQVYTLPPSREEMTKNQVSLTCLVKGFYPSDIAVEWESNGQPENNYKTTPPVLDSDGSFFLYSKLTVDKSRWQQGNVFSCSVMHEALHNHYTQKSLSLSPGK
# chain 2: DVQLVESGGGLVQAGGSLRLACAGSGRIFAIYDIAWYRHPPGNQRELVAMIRPVVTEIDYADSVKGRFTISRNNAMKTVYLQMNNLKPEDTAVYYCNAKRPWGSRDEYWGQGTQVTVSSGSGSGSYVLTQPPSVSVSPGQTASITCSGDKVGHKYASWYQQKPGQSPVLVIYEDSQRPSGIPVRFSGSNSGNTATLTISGTQAMDEADYYCQAWDSSTDVVFGGGTKLTVLGQPKAAPSVTLFPPSSEELQANKATLVCLISDFYPGAVTVAWKADSSPVKAGVETTTPSKQSNNKYAASSYLSLTPEQWKSHRSYSCQVTHEGSTVEKTVAPTECS
# B2: RSPO1: R-spondin 1, of a family of ligands that amplify Wnt signals (protein, UniProt Q2MKA7 21-263, looked up)
# R-spondin-1: SRGIKGKRQRRISAEGSQACAKGCELCSEVNGCLKCSPKLFILLERNDIRQVGVCLPSCPPGYFDARNPDMNKCIKCKIEHCEACFSHNFCTKCKEGLYLHKGRCYPACPEGSSAANGTMECSSPAQCEMSEWSPWGPCSKKQQLCGFRRGSEERTRRVLHAPVGDHAACSDTKETRRCTVRRVPCPEGQKRRKGGQGRRENANRNLARKESKEAGAGSRRRKGQQQQQQQGTVGPLTSAGPA
# B3: RSPO2: the Wnt signaling enhancer RSPO2 (R-spondin 2) (protein, UniProt Q6UXX9 22-243, looked up)
# R-spondin-2: QGNRWRRSKRASYVSNPICKGCLSCSKDNGCSRCQQKLFFFLRREGMRQYGECLHSCPSGYYGHRAPDMNRCARCRIENCDSCFSKDFCTKCKVGFYLHRGRCFDECPDGFAPLEETMECVEGCEVGHWSEWGTCSRNNRTCGFKWGLETRTRQIVKKPVKDTILCPTIAESRRCKMTMRHCPGGKRTPKAKEKRNKKKKRKLIERAQEQHSVFLATDRANQ
# B4: SWAP5: FZD-1,2,5,7,8-specific Wnt agonist; anti-FZD antibody with LRP6 VHH on light chain N-terminus; SEQ ID NO: 1 and 2 (protein)
# chain 1: EVQLVQSGAEVKKPGASVKVSCKASGYTFTSYGISWVRQAPGQGLEWMGWISAYNGNTNYAQKLQGRVTMTTDTSTSTAYMELRSLRSDDTAVYYCASSKEKATYYYGMDVWGQGTTVTVSSASTKGPSVFPLAPSSKSTSGGTAALGCLVKDYFPEPVTVSWNSGALTSGVHTFPAVLQSSGLYSLSSVVTVPSSSLGTQTYICNVNHKPSNTKVDKKVEPKSCDKTHTCPPCPAPEAAGGPSVFLFPPKPKDTLMISRTPEVTCVVVDVSHEDPEVKFNWYVDGVEVHNAKTKPREEQYNSTYRVVSVLTVLHQDWLNGKEYKCKVSNKALGAPIEKTISKAKGQPREPQVYTLPPSREEMTKNQVSLTCLVKGFYPSDIAVEWESNGQPENNYKTTPPVLDSDGSFFLYSKLTVDKSRWQQGNVFSCSVMHEALHNHYTQKSLSLSPGK
# chain 2: DVQLVESGGGLVQAGGSLRLACAGSGRIFAIYDIAWYRHPPGNQRELVAMIRPVVTEIDYADSVKGRFTISRNNAMKTVYLQMNNLKPEDTAVYYCNAKRPWGSRDEYWGQGTQVTVSSGSGSGQAVVLQEPSLSVSPGGTVTLTCGLSSGSVSTNYYPSWYQQTPGQAPRTLIYYTNTRSSDVPERFSGSIVGNKAALTITGAQPDDESVYFCLLYLGRGIWVFGGGTKLTVLGQPKAAPSVTLFPPSSEELQANKATLVCLISDFYPGAVTVAWKADSSPVKAGVETTTPSKQSNNKYAASSYLSLTPEQWKSHRSYSCQVTHEGSTVEKTVAPTECS
# B5: SWAP4: FZD4-mono-specific Wnt agonist; anti-FZD antibody with LRP6 binder; heavy/light chains SEQ ID NO: 9 and 10 (antibody)
# heavy: EVQLVESGGGLVQPGGSLRLSCAASGFTFTSYYISWVRQAPGKGLEWVAEISPYSGSTYYADSVKGRFTISADTSKNTAYLQMNSLRAEDTAVYYCALRARPPIRLHPRGSVMDYWGQGTLVTVSSGGGGSGGGGSGGGGSEVQLVESGGGLVQPGGSLRLSCAASGFNISYYYIHWVRQAPGKGLEWLASIYPSSGYTYYADSVKGRFTISADTSKNTAYLQMNSLRAEDTAVYYCARSSFYWAMDYWGQGTLVTVSSASTKGPSVFPLAPSSKSTSGGTAALGCLVKDYFPEPVTVSWNSGALTSGVHTFPAVLQSSGLYSLSSVVTVPSSSLGTQTYICNVNHKPSNTKVDKKVEPKSCDKTHTCPPCPAPEAAGGPSVFLFPPKPKDTLMISRTPEVTCVVVDVSHEDPEVKFNWYVDGVEVHNAKTKPREEQYNSTYRVVSVLTVLHQDWLNGKEYKCKVSNKALGAPIEKTISKAKGQPREPQVYTLPPSREEMTKNQVSLTCLVKGFYPSDIAVEWESNGQPENNYKTTPPVLDSDGSFFLYSKLTVDKSRWQQGNVFSCSVMHEALHNHYTQKSLSLSPGK
# light: DIQMTQSPSSLSASVGDRVTITCRASQDVSTAVAWYQQKPGKAPKLLIYSASFLYSGVPSRFSGSGSGTDFTLTISSLQPEDFATYYCQQSYTTPPTFGQGTKVEIKGGGGSGGGGSGGGGSDIQMTQSPSSLSASVGDRVTITCRASQSVSSAVAWYQQKPGKAPKLLIYSASSLYSGVPSRFSGSRSGTDFTLTISSLQPEDFATYYCQQSYAAYLFTFGQGTKVEIKRTVAAPSVFIFPPSDEQLKSGTASVVCLLNNFYPREAKVQWKVDNALQSGNSQESVTEQDSKDSTYSLSSTLTLSKADYEKHKVYACEVTHQGLSSPVTKSFNRGEC
# Columns and labels:
# [1] = test system: acute bleomycin mouse model; test: Bleomycin-induced acute lung injury (fibrosis) mouse model; assay type: in vivo; settings: for fibrosis score (Modified Ashcroft) / percentage of lung area affected by fibrosis: agent alone, dosed four times between week 1 and week 3, vs anti-GFP; for fibrosis score (Modified Ashcroft): FIGS. 10-12; for percentage of lung area affected by fibrosis: FIGS. 10-11
# Description: The acute lung injury (single bleomycin treatment; FIG. 1) and chronic intermittent/low dose bleomycin mouse models (FIG. 2) were used to determine the therapeutic effects of Wnt antagonist and agonist (administered concurrently or sequentially or individually) in combination with or without anti-fibrotic drugs (e.g., pirfenidone and nintedanib) to assess effects on anti-fibrotic and improved respiratory functions (see, e.g., Degryse, A. et al. (2010) Am J Physiol Lung Cell Mol Physiol. 299:442-52). Improvement of fibrosis was observed upon treatment with a WNT agonist, SWAP5 (see, e.g., FIG. 7, FIG. 10). Specifically, bleomycin was administered intratracheally to the mice at day 0, and animals were treated twice weekly with an agonist approach—combination of SWAP5 (FZD1,2,5,7,8 multi-FZD-specific SWAP) and RSPO2 (combo)—for two weeks starting at day 7 until termination at day 21. […] Improvement of fibrosis was also observed upon treatment with a Wnt agonist or the Wnt signaling enhancer RSPO2 alone (FIG. 10).
# human AT2 cell organoid [2] = test: Human AT2 cell organoid growth, CellTiter Glo assay; assay type: cell-based; settings: for human AT2 culture growth: RSPO alone, Wnt signaling inhibitor C59 present
# Method: For ex vivo studies, 3D organoid cultures (see, e.g., Zacharias, W. et al. (2018) Nature 555:251-257 and Barkauskas et al. (2017) Development 144:986-997) were constructed by combining primary human lung fibroblasts from healthy, pulmonary fibrosis, or COPD patients with alveolar epithelial cells (AT2 and AEP cells) from patients. Organoids were cultured in SAGM medium with growth factor free Matrigel. The Wnt antagonist and agonist were added in a sequential or concurrent manner to determine the effect on the fibroblast/myofibroblast proliferation, matrix production, alveolar epithelial cell proliferation and AT1/AT2 cell fate trans-differentiation. Alveolar organoids can also be cultured directly from human distal lung cells including purified AT2 cells (Kobayashi et al., (2020) supra).
# In all of the AT2 cell organoid experiments, the Wnt signaling inhibitor, C59, was used to prevent endogenous secretion of Wnt ligands. […] AT2 cell organoid growth was assessed with the CellTiter Glo assay.
# human AT2 cell organoid [3] = test: Human AT2 organoid size (diameter, microscopy); assay type: cell-based; settings: in the absence of RSPO; C59 present; FIG. 6
# [4] = combination of SWAP5 and RSPO2 (combo), twice weekly day 7 to day 21, FIG. 7
molecule,measurement,setting,value
B1,fibrosis score (Modified Ashcroft),[1],caused a trend of reduction in the extent of fibrosis
B2,human AT2 culture growth,human AT2 cell organoid [2],did not enhance human AT2 culture growth
B3,human AT2 culture growth,human AT2 cell organoid [2],did not enhance human AT2 culture growth
same,percentage of lung area affected by fibrosis,[1],reduced the fibrosis score and percentage of lung area affected; also recorded: reduce the area of the lung that is fibrotic
same,fibrosis score (Modified Ashcroft),[1],reduced the fibrosis score; also recorded: lower the severity of fibrosis
B4,percentage of lung area affected by fibrosis,[1],reduced the fibrosis score and percentage of lung area affected; also recorded: reduce the area of the lung that is fibrotic
same,fibrosis score (Modified Ashcroft),[1],reduced the fibrosis score; also recorded: lower the severity of fibrosis
same,area (percent) of lung affected by fibrosis,[1]; [4],reduction in the degree of fibrosis severity and the area of the lung affected by fibrosis; also recorded: reduce the area of the lung that is fibrotic
same,fibrosis severity (fibrosis score),[1]; [4],reduction in the degree of fibrosis severity; also recorded: lower the severity of fibrosis
B5,self-renewal and expansion of human AT2 cells,human AT2 cell organoid [2]; summary of organoid results,promotes the self-renewal and expansion of human AT2 cells
same,human AT2 cell organoid growth as organoid size (diameter),human AT2 cell organoid [3],expand AT2 organoids
